Measurements: PMC8422858

Molecular target: His-tagged recombinant human apolipoprotein L3 (rHis-APOL3) (human)
Test: native MS

stoichiometry N: 2
Substance: His-tagged recombinant human apolipoprotein L3 (rHis-APOL3) (natural protein)
